Starred links: 1 amine or outer side, 2 acyl side, 3 side chain; linkers in the order of their positions; H or OH if unused. Non-standard residues stand in square brackets, D forms with d. Groups on a side chain read outwards from the residue. No end group written: not given here. *: point of attachment. C20 diacid = O=C(O)CCCCCCCCCCCCCCCCCCC(=O)*; γGlu = O=C(O)[C@H](CCC(=O)[*:2])N[*:1]; αMeL = CC(C)C[C@](C)(N)C(=O)O; AEEA = NCCOCCOCC(=O)O; Aib = CC(C)(N)C(=O)O
B1: Example 72 (peptide)
peptide: Y[Aib]EGTLISDYSI[αMeL]LDKK([AEEA-AEEA-γGlu-C20 diacid])HQ[Aib]EFVEYLLETGPSSGAPPPS-NH2
modifications: N-terminus assumed
SMILES: CC[C@H](C)[C@H](NC(=O)[C@H](CC(C)C)NC(=O)[C@@H](NC(=O)CNC(=O)[C@H](CCC(=O)O)NC(=O)C(C)(C)NC(=O)[C@@H](N)Cc1ccc(O)cc1)[C@@H](C)O)C(=O)N[C@@H](CO)C(=O)N[C@@H](CC(=O)O)C(=O)N[C@@H](Cc1ccc(O)cc1)C(=O)N[C@@H](CO)C(=O)N[C@H](C(=O)N[C@@](C)(CC(C)C)C(=O)N[C@@H](CC(C)C)C(=O)N[C@@H](CC(=O)O)C(=O)N[C@@H](CCCCN)C(=O)N[C@@H](CCCCNC(=O)COCCOCCNC(=O)COCCOCCNC(=O)CC[C@H](NC(=O)CCCCCCCCCCCCCCCCCCC(=O)O)C(=O)O)C(=O)N[C@@H](Cc1c[nH]cn1)C(=O)N[C@@H](CCC(N)=O)C(=O)NC(C)(C)C(=O)N[C@@H](CCC(=O)O)C(=O)N[C@@H](Cc1ccccc1)C(=O)N[C@H](C(=O)N[C@@H](CCC(=O)O)C(=O)N[C@@H](Cc1ccc(O)cc1)C(=O)N[C@@H](CC(C)C)C(=O)N[C@@H](CC(C)C)C(=O)N[C@@H](CCC(=O)O)C(=O)N[C@H](C(=O)NCC(=O)N1CCC[C@H]1C(=O)N[C@@H](CO)C(=O)N[C@@H](CO)C(=O)NCC(=O)N[C@@H](C)C(=O)N1CCC[C@H]1C(=O)N1CCC[C@H]1C(=O)N1CCC[C@H]1C(=O)N[C@@H](CO)C(N)=O)[C@@H](C)O)C(C)C)[C@@H](C)CC
B2: Example 71 (peptide)
peptide: Y[Aib]EGTFISDYSI[αMeL]LDKK([AEEA-AEEA-γGlu-C20 diacid])HQ[Aib]DFVEWLLETGPSSGAPPPS-NH2
modifications: N-terminus assumed
SMILES: CC[C@H](C)[C@H](NC(=O)[C@H](Cc1ccccc1)NC(=O)[C@@H](NC(=O)CNC(=O)[C@H](CCC(=O)O)NC(=O)C(C)(C)NC(=O)[C@@H](N)Cc1ccc(O)cc1)[C@@H](C)O)C(=O)N[C@@H](CO)C(=O)N[C@@H](CC(=O)O)C(=O)N[C@@H](Cc1ccc(O)cc1)C(=O)N[C@@H](CO)C(=O)N[C@H](C(=O)N[C@@](C)(CC(C)C)C(=O)N[C@@H](CC(C)C)C(=O)N[C@@H](CC(=O)O)C(=O)N[C@@H](CCCCN)C(=O)N[C@@H](CCCCNC(=O)COCCOCCNC(=O)COCCOCCNC(=O)CC[C@H](NC(=O)CCCCCCCCCCCCCCCCCCC(=O)O)C(=O)O)C(=O)N[C@@H](Cc1c[nH]cn1)C(=O)N[C@@H](CCC(N)=O)C(=O)NC(C)(C)C(=O)N[C@@H](CC(=O)O)C(=O)N[C@@H](Cc1ccccc1)C(=O)N[C@H](C(=O)N[C@@H](CCC(=O)O)C(=O)N[C@@H](Cc1c[nH]c2ccccc12)C(=O)N[C@@H](CC(C)C)C(=O)N[C@@H](CC(C)C)C(=O)N[C@@H](CCC(=O)O)C(=O)N[C@H](C(=O)NCC(=O)N1CCC[C@H]1C(=O)N[C@@H](CO)C(=O)N[C@@H](CO)C(=O)NCC(=O)N[C@@H](C)C(=O)N1CCC[C@H]1C(=O)N1CCC[C@H]1C(=O)N1CCC[C@H]1C(=O)N[C@@H](CO)C(N)=O)[C@@H](C)O)C(C)C)[C@@H](C)CC

How the values were obtained:
Assay in all cases: cell-based or functional assay
human glucagon receptor = human glucagon receptor (human, UniProt P47871 26-477)
[1] = biological target: T1, human glucose-dependent insulinotropic peptide receptor (human, UniProt P48546 22-466)
T1 sequence (looked up): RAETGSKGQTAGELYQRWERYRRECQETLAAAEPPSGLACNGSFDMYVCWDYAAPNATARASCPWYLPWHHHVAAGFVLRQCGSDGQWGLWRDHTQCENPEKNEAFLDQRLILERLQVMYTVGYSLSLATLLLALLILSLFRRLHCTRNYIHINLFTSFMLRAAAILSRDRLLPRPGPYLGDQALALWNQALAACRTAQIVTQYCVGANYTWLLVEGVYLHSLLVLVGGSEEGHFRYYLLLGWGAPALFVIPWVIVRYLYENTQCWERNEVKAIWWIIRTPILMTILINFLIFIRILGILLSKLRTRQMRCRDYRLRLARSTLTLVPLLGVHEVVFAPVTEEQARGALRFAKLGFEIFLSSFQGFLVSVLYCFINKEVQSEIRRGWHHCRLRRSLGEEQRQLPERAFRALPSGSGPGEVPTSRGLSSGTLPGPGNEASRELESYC

human GLP-1 receptor = human GLP-1 receptor (human, UniProt P43220 24-463)

Sequence of human glucagon receptor (P47871 26-477): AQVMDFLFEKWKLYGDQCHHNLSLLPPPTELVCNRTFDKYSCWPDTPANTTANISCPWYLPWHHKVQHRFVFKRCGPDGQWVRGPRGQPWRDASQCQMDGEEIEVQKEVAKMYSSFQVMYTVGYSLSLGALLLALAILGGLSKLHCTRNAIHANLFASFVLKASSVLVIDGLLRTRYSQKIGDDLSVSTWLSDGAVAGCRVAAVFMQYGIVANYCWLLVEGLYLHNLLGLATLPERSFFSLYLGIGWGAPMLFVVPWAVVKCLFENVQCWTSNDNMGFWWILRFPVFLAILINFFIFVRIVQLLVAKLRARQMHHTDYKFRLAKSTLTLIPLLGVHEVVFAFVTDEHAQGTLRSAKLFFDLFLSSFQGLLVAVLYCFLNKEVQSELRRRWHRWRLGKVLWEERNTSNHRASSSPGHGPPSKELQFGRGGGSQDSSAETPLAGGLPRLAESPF

Row | Binder | hGcgR cAMP Rel EC50 (human glucagon receptor) [nM] | hGIPR cAMP Rel EC50 [1] [nM] | hGLP1R cAMP Rel EC50 (human GLP-1 receptor) [nM]
1 | B1 | > 5000 | 0.0182 | > 5000
2 | B2 | 581 | 0.0721 | > 5000

From patent publication US20210032299A1 (Eli Lilly, published 2021)
